In patent publication US20240343803A1 (SHANDONG SIMCERE BIOPHARMACEUTICAL, published 2024):

T1: human PVRIG-his (AcroBiosystems, Cat NO. PVG-H52H4) (human, UniProt Q6DKI7 41-171, limits assumed)
T1 construct: treated as the same protein; also called human PVRIG-His protein; Human PVRIG-His, Acro C227P1-9ARF1-T4
T1 sequence (looked up): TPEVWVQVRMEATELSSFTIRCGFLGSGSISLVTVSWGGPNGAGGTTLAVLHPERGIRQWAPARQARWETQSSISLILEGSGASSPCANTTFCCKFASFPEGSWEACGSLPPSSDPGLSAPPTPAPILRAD

T2: cynomolgus monkey PVRIG (Novoprotein, Cat NO. C09B) (cynomolgus monkey, UniProt A0A2K5WVV8 41-171)
T2 construct: bought reagent; also called cynomolgus monkey PVRIG recombinant protein
T2 sequence: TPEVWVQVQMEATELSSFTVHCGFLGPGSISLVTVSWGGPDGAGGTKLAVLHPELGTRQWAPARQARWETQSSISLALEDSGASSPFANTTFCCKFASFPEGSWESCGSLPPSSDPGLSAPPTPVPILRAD

T3: cynomolgus monkey PVRIG on FlpinCHO-cyno PVRIG cells (cynomolgus monkey, UniProt A0A2K5WVV8 41-322)
T3 construct: whole, on cells; also called FlpinCHO-cynomolgus monkey PVRIG
T3 sequence: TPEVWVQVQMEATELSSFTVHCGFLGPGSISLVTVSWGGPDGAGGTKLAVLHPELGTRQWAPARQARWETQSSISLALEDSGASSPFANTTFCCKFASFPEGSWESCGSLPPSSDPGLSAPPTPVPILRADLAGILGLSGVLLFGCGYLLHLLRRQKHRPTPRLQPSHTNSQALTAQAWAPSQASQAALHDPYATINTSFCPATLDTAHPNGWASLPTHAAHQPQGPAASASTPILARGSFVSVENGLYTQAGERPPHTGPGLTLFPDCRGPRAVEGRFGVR

T4: full-length human TIGIT on CHO-K1 cells (CHO-K1 human TIGIT) (human, UniProt Q495A1 22-244)
T4 construct: NCBI XP_024309156.1; entry includes the signal peptide; also called high expression strain 1D2; medium expression strain 2D10
T4 sequence: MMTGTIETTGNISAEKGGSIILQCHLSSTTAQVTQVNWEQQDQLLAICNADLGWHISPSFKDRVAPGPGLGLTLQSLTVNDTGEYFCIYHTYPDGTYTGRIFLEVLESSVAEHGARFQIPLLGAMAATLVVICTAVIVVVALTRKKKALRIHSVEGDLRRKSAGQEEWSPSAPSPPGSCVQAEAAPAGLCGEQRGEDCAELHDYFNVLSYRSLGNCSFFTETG

T5: TIGIT on human PBMCs stimulated by SEA (human, UniProt Q495A1 22-244)
T5 construct: whole, on cells
T5 sequence (looked up): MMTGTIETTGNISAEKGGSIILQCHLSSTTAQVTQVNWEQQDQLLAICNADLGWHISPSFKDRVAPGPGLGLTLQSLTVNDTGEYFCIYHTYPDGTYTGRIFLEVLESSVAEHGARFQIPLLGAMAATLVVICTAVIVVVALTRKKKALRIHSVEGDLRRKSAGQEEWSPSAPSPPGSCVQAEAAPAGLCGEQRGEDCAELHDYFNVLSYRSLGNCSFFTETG


Tests used:
[1] = target: T1, human PVRIG-his (AcroBiosystems, Cat …); test: ELISA, coated human PVRIG-his
[2] = target: T2, cynomolgus monkey PVRIG (Novoprotein, …); test: ELISA, coated cynomolgus monkey PVRIG
[3] = target: T3, cynomolgus monkey PVRIG on …; test: FACS, FlpinCHO cynomolgus monkey PVRIG cells
Experimental: CHO-K1 stable cells ([…]-61™) transfected with human or cynomolgus monkey PVRIG high expression plasmids were named FlpinCHO-hPVRIG and FlpinCHO-cynoPVRIG. […] After discarding the cell culture medium, the cells were rinsed with PBS and digested for 8-10 minutes by adding 1 mL Versene (Gibico, 15040-066). The Ham's F12 (Gibico, 21127-022) complete medium containing 10% FBS was then added to terminate the digestion and acquire cell suspension. After cell counting, an appropriate amount of cell suspension was centrifuged at 350×g to remove the supernatant, washed twice with PBS, stained with Zombie violet (Biolegend, 423114) and incubated at room temperature for 20 minutes. After incubation, the cells were added with staining buffer (2% FBS+PBS) to stop staining, centrifuged at 350×g to remove the supernatant, washed twice and resuspended with staining buffer to a density of 2×10⁶ cells/mL. The cells were plated into a 96-well plate (50 μL of cell suspension per well) for further use. The antibodies were diluted from the highest concentration of 46 nM (two-fold concentration) with staining buffer by 3.3-fold serial dilution. The diluted antibodies were added to the well containing 50 μL of cell suspension. […] After staining, the cells were washed twice with staining buffer, finally resuspended with 200 μL staining buffer and analyzed by flow cytometry (BD, Canto II).

[4] = target: T3, cynomolgus monkey PVRIG on …; test: FACS, FlpinCHO-cyno PVRIG cells
[5] = target: T3, cynomolgus monkey PVRIG on …; test: FACS, FlpinCHO-cyno PVRIG cells; remark: listed apart in the source
Experimental: After discarding the cell culture medium, the cells were rinsed with PBS and digested for 8-10 minutes by adding 1 mL Versene (Gibico, 15040-066). The Ham's F12 (Gibico, 21127-022) complete medium containing 10% FBS was then added to terminate the digestion and acquire cell suspension. After counting with a cell counter (Beckman Coulter, Vi-CELL), an appropriate amount of cell suspension was centrifuged at 350×g to remove the supernatant, washed twice with PBS, stained with Zombie violet (Biolegend, 423114) and incubated at room temperature for 20 minutes. After incubation, the cells were added with staining buffer (2% FBS+PBS) to stop staining, centrifuged at 350×g to remove the supernatant, washed twice and resuspended with staining buffer to a density of 2×10⁶ cells/mL. The cells were plated into a 96-well plate (50 μL of cell suspension per well) for further use. The antibodies were diluted from the highest concentration of 46 nM (two-fold concentration) with staining buffer by 3.3-fold serial dilution. The diluted antibodies were added to the well containing 50 μL of cell suspension. The plate was placed on a microplate shaker at 400 rpm for 1 minute to fully mix the antibodies and cells, and then incubated at 4° C. for 30 minutes. After the incubation, the cells were washed twice with staining buffer (200 μL per well) and centrifuged at 350×g for 5 minutes to discard the supernatant. The PE goat anti-human IgG Fc antibody (ebioscience, 12-4998-82) was diluted 250 times with staining buffer, added into the washed wells (100 μL per well), mixed well, and stained at 4° C. for 30 minutes. After staining, the cells were washed twice with staining buffer, finally resuspended with 200 μL staining buffer and analyzed by flow cytometry (BD, Canto II). […] An antibody binding curve was drawn with concentration of antibodies as the abscissa and the corresponding Mean Fluorescence Intensity (MFI) as the ordinate. The AUC value of the curve was calculated by using a Four Parameter Logistic Fit (GraphPadPrism9). […]

[6] = target: T4, full-length human TIGIT on CHO-K1 cells …; test: FACS, CHO-K1 human TIGIT high expression strain
Experimental: (§1) The collected cells were washed once with PBS (Hyclone, Cat NO. SH30256), resuspended to 2×10⁵/50 μL with 1% BSA-PBS. The antibodies were diluted to 80 nM with 1% BSA-PBS (diluted by 3-fold serial dilution for 12 concentration points). The 50 μL cells were then mixed with 50 μL diluted antibodies, and then incubated at 4° C. for 60 minutes. […] After washing twice with PBS, the cell samples were resuspended with 1% BSA-PBS, 100 μL/well and then analyzed by flow cytometry (BD, Canto II).

[7] = target: T4, full-length human TIGIT on CHO-K1 cells …; test: FACS, CHO-K1 human TIGIT low expression strain
Experimental: as §1

[8] = target: T5, TIGIT on human PBMCs stimulated by SEA; test: FACS, SEA-stimulated human PBMCs
Experimental: The fresh human PBMCs (AllCells, PB004-C) were adjusted to a density of 5×10⁵/mL, added with SEA (Toxin Technology, Inc., AT101) to 100 ng/mL, and cultured at 37° C. with 5% CO₂ for 3 days. The cells were collected 3 days later, washed once with PBS (Hyclone, SH30256), added with Fc Block (BD, 564220) and then incubated at 4° C. for 10 minutes. After washing twice with PBS, the PBMCs were resuspended to 2×10⁵/50 μL with 1% BSA-PBS. The humanized antibodies were diluted to 80 nM with 1% BSA-PBS (diluted by 3-fold serial dilution for 12 concentration points). The 50 μL cells were then mixed with 50 μL diluted antibodies, and then incubated at 4° C. for 60 minutes. […] After washing twice with PBS, the cell samples were resuspended with 1% BSA-PBS, 100 µL/well, and then analyzed by flow cytometry (BD, Canto II).

[9] = target: T4, full-length human TIGIT on CHO-K1 cells …; test: FACS, CHO-K1 human TIGIT medium expression strain
Experimental: as §1

[10] = target: T6, full-length cynomolgus monkey TIGIT on CHO-K1 cells (CHO-K1 cynomolgus monkey TIGIT) (cynomolgus monkey); test: FACS, CHO-K1 cynomolgus monkey TIGIT cells
T6 construct: NCBI XP_015300911.1; also called cynomolgus monkey TIGIT cells
T6 sequence (chain, as listed by the source limits assumed): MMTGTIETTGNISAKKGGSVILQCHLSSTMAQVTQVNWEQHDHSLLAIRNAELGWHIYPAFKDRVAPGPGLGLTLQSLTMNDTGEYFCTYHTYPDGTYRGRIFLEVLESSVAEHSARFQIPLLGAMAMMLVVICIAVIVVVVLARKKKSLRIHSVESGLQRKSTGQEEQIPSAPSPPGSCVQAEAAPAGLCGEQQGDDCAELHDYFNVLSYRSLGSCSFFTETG
Experimental: as §1

[11] = target: T4, full-length human TIGIT on CHO-K1 cells …; test: competition FACS; blocked: Bio-CD155-His binding to CHO-K1 human TIGIT cells
Experimental: The collected cells were washed once with PBS (Hyclone, SH30256), resuspended to 2×10⁵/40 μL with 1% BSA-PBS. The antibodies were diluted to 210 nM with 1% BSA-PBS (diluted by 3-fold serial dilution for 12 concentration points). […] The 40 μL cells were then mixed with 40 μL diluted antibodies and 40 μL diluted Bio-CD155-His, and then incubated at 4° C. for 60 minutes. The cells were washed twice with PBS, resuspended with APC labeled streptavidin (dilution ratio 1:1700, Biolegend, 405243), 100 μL/well, and incubated at 4° C. for 40 minutes. The cell samples were washed twice with PBS, resuspended with 1% BSA-PBS (100 μL/well) and then analyzed by flow cytometry (BD, Canto II).

Binder	EC50 (read off the curve) [1]	EC50 (read off the curve) [2]	EC50 (read off the curve) [3]	EC50 (read off the curve) [4]	EC50 (read off the curve) [5]	EC50 (read off the curve) [6]	EC50 (read off the curve) [7]	EC50 (read off the curve) [8]	EC50 (read off the curve) [9]	EC50 (read off the curve) [10]	IC50 (read off the curve) [11]
COM701-hIgG1 (antibody, V domains shown, human IgG1 format by its name) VH: QVQLVQSGAEVKKPGASVKVSCKASGYTFTDYNINWVRQAPGQGLEWMGYIYPYIGGSGYAQKFQGRVTMTRDTSTSTVYMELSSLRSEDTAVYYCAREDKTARNAMDYWGQGTLVTVSS VL: DIQMTQSPSSLSASVGDRVTITCRVSENIYSNLAWYQQKPGKAPKLLIYEATNLAEGVPSRFSGSGSGTDFTLTISSLQPEDFATYYCQHFWGTPYTFGQGTKLEIK	~0.06 nM	~0.04 nM	~0.5 nM	~0.6 nM	~0.5 nM	–	–	–	–	–	–
TIGIT-002-H4L3 (antibody, V domains shown, humanized; 002.VH4 with 002.VL3) VH: EVQLQESGPGLVKPSETLSLTCAVSGYSITSDSWNWIRQPPGKKLEYIGYISYSGNTYYNPSLKSRVTISRDTSKNQFSLKLSSVTAADTAVYYCARLDFSNYGGAVDYWGQGTTVTVSS VL: DIVMTQSPDSLAVSLGERATINCKASQNVRTAVAWYQQKPGQSPKLMIYSASYRYTGVPDRFSGSGSGTDFTLTISSLQAEDVAVYYCQQYYTTPWTFGGGTKVEIK	–	–	–	–	–	~0.2 nM	~0.1 nM	~0.06 nM	~0.1 nM	~0.4 nM	~0.09 nM
TIGIT-005-H2L1d (antibody, V domains shown, humanized; 005.VH2 with 005.VL1d) VH: EVQLVQSGAEVKKPGASVKVSCKASGYAFTNYLIEWVRQAPGQRLEWMGVINPGSGGTNYKEKFKGRVTITADKSSSTAYMELSSLRSEDTAVYYCARGEYFFFDYWGQGTTVTVSS VL: DIVMTQSPDSLAVSLGERATINCKASQHVSNAVAWYQHKPGQSPKLLIYSASYRYTGVPDRFSGSGSGTDFTLTISSLQAEDVAVYYCQQHYNTPHTFGGGTKVEIK	–	–	–	–	–	~0.2 nM	~0.09 nM	~0.09 nM	~0.1 nM	~0.4 nM	~0.09 nM
